B1: SNAP-FZD5 (Frizzled 5), wild type [human] / DEP_(414–507)-GFP, minimal DEP domain of DVL2 [human] (parent)
chain 1: GRGLSVHTDMASVTKAMAAPESGLEVRDRMWLKITIPNAFLGSDVVDWLYHHVEGFPERREARKYASGLLKAGLIRHTVNKITFSEQCYYVFGD
chain 2: ASKAPVCQEITVPMCRGIGYNLTHMPNQFNHDTQDEAGLEVHQFWPLVEIQCSPDLRFFLCSMYTPICLPDYHKPLPPCRSVCERAKAGCSPLMRQYGFAWPERMSCDRLPVLGRDAEVLCMDYNRSEATTAPPRPFPAKPTLPGPPGAPASGGECPAGGPFVCKCREPFVPILKESHPLYNKVRTGQVPNCAVPCYQPSFSADERTFATFWIGLWSVLCFISTSTTVATFLIDMERFRYPERPIIFLSACYLCVSLGFLVRLVVGHASVACSREHNHIHYETTGPALCTIVFLLVYFFGMASSIWWVILSLTWFLAAGMKWGNEAIAGYAQYFHLAAWLIPSVKSITALALSSVDGDPVAGICYVGNQNLNSLRGFVLGPLVLYLLVGTLFLLAGFVSLFRIRSVIKQGGTKTDKLEKLMIRIGIFTLLYTVPASIVVACYLYEQHYRESWEAALTCACPGHDTGQPRAKPEYWVLMLKYFMCLVVGITSGVWIWSGKTVESWRRFTSRCCCRPRRGHKSGGAMAAGDYPEASAALTGRTGPPGPAATYHKQVSLSHV

Variants of: B1
Assay: FZD5-dependent PM recruitment of DEP-GFP (cell scoring)
Conditions: with DEP_(414–507)-GFP, 100 cells scored in each case

Row | Variant | screen value (parent: 52, read off a plot) | screen value (parent: 88, read off a plot)
1 | chain 2 ASKAPVCQEITVPMCRGIGYNLTHMPNQFNHDTQDEAGLEVHQFWPLVEIQCSPDLRFFLCSMYTPICLPDYHKPLPPCRSVCERAKAGCSPLMRQYGFAWPERMSCDRLPVLGRDAEVLCMDYNRSEATTAPPRPFPAKPTLPGPPGAPASGGECPAGGPFVCKCREPFVPILKESHPLYNKVRTGQVPNCAVPCYQPSFSADERTFATFWIGLWSVLCFISTSTTVATFLIDMERFRYPERPIIFLSACYLCVSLGFLVRLVVGHASVACSREHNHIHYETTGPALCTIVFLLVYFFGMASSIWWVILSLTWFLAAGMKWTNEAIAGYAQYFHLAAWLIPSVKSITALALSSVDGDPVAGICYVGNQNLNSLRGFVLGPLVLYLLVGTLFLLAGFVSLFRIRSVIKQGGTKTDKLEKLMIRIGIFTLLYTVPASIVVACYLYEQHYRESWEAALTCACPGHDTGQPRAKPEYWVLMLKYFMCLVVGITSGVWIWSGKTVESWRRFTSRCCCRPRRGHKSGGAMAAGDYPEASAALTGRTGPPGPAATYHKQVSLSHV [chain 2 G323T] | 56 % of cells | 92 % of cells
2 | chain 2 ASKAPVCQEITVPMCRGIGYNLTHMPNQFNHDTQDEAGLEVHQFWPLVEIQCSPDLRFFLCSMYTPICLPDYHKPLPPCRSVCERAKAGCSPLMRQYGFAWPERMSCDRLPVLGRDAEVLCMDYNRSEATTAPPRPFPAKPTLPGPPGAPASGGECPAGGPFVCKCREPFVPILKESHPLYNKVRTGQVPNCAVPCYQPSFSADERTFATFWIGLWSVLCFISTSTTVATFLIDMERFRYPERPIIFLSACYLCVSLGFLVRLVVGHASVACSREHNHIHYETTGPALCTIVFLLVYFFGMASSIWWVILSLTWFLAAGMAWGNEAIAGYAQYFHLAAWLIPSVKSITALALSSVDGDPVAGICYVGNQNLNSLRGFVLGPLVLYLLVGTLFLLAGFVSLFRIRSVIKQGGTKTDKLEKLMIRIGIFTLLYTVPASIVVACYLYEQHYRESWEAALTCACPGHDTGQPRAKPEYWVLMLKYFMCLVVGITSGVWIWSGKTVESWRRFTSRCCCRPRRGHKSGGAMAAGDYPEASAALTGRTGPPGPAATYHKQVSLSHV [chain 2 K321A] | 45 % of cells | 92 % of cells
3 | chain 2 ASKAPVCQEITVPMCRGIGYNLTHMPNQFNHDTQDEAGLEVHQFWPLVEIQCSPDLRFFLCSMYTPICLPDYHKPLPPCRSVCERAKAGCSPLMRQYGFAWPERMSCDRLPVLGRDAEVLCMDYNRSEATTAPPRPFPAKPTLPGPPGAPASGGECPAGGPFVCKCREPFVPILKESHPLYNKVRTGQVPNCAVPCYQPSFSADERTFATFWIGLWSVLCFISTSTTVATFLIDMERFRYPERPIIFLSACYLCVSLGFLVRLVVGHASVACSREHNHIHYETTGPALCTIVFLLVYFFGMASSIWWVILSLTWFLAAGMKWGNEAIAGYAQYFHLAAWLIPSVKSITALALSSVDGDPVAGICYVGNQNLNSLRGFVLGPLVLYLLVGTLFLLAGFVSLFRIRSVIKQGGTKTDKAEKLMIRIGIFTLLYTVPASIVVACYLYEQHYRESWEAALTCACPGHDTGQPRAKPEYWVLMLKYFMCLVVGITSGVWIWSGKTVESWRRFTSRCCCRPRRGHKSGGAMAAGDYPEASAALTGRTGPPGPAATYHKQVSLSHV [chain 2 L417A] | 5 % of cells | 37 % of cells
4 | chain 2 ASKAPVCQEITVPMCRGIGYNLTHMPNQFNHDTQDEAGLEVHQFWPLVEIQCSPDLRFFLCSMYTPICLPDYHKPLPPCRSVCERAKAGCSPLMRQYGFAWPERMSCDRLPVLGRDAEVLCMDYNRSEATTAPPRPFPAKPTLPGPPGAPASGGECPAGGPFVCKCREPFVPILKESHPLYNKVRTGQVPNCAVPCYQPSFSADERTFATFWIGLWSVLCFISTSTTVATFLIDMERFRYPERPIIFLSACYLCVSLGFLVRLVVGHASVACSREHNHIHYETTGPALCTIVFLLVYFFGMASSIWWVILSLTWFLAAGMKWGNEAIAGYAQYFHLAAWLIPSVKSITALALSSVDGDPVAGICYVGNQNLNSLRGFVLGPLVLYLLVGTLFLLAGFVSLFRARSVIKQGGTKTDKLEKLMIRIGIFTLLYTVPASIVVACYLYEQHYRESWEAALTCACPGHDTGQPRAKPEYWVLMLKYFMCLVVGITSGVWIWSGKTVESWRRFTSRCCCRPRRGHKSGGAMAAGDYPEASAALTGRTGPPGPAATYHKQVSLSHV [chain 2 I403A] | 34 % of cells | 70 % of cells

More lines, now with the values ahead:

Row | screen value (parent: 52, read off a plot) | screen value (parent: 88, read off a plot) | Variant
5 | 50 % of cells | 92 % of cells | chain 2 ASKAPVCQEITVPMCRGIGYNLTHMPNQFNHDTQDEAGLEVHQFWPLVEIQCSPDLRFFLCSMYTPICLPDYHKPLPPCRSVCERAKAGCSPLMRQYGFAWPERMSCDRLPVLGRDAEVLCMDYNRSEATTAPPRPFPAKPTLPGPPGAPASGGECPAGGPFVCKCREPFVPILKESHPLYNKVRTGQVPNCAVPCYQPSFSADERTFATFWIGLWSVLCFISTSTTVATFLIDMERFRYPERPIIFLSACYLCVSLGFLVRLVVGHASVACSREHNHIHYETTGPALCTIVFLLVYFFGMASSIWWVILSLTWFLAAGMKWGNEAIAGYAQYFHLAAWLIPSVKSITALALSSVDGDPVAGICYVGNQNLNSLRGFVLGPLVLYLLVGTLFLLAGFVSLFRIRSVIKQGGTKTDKLEKLMIRIGIFTLLYTVPASIVVACYLYEQHYRESWEAALTCACPGHDTGQPRAKPEYWVLMLKYFMCLVVGITSGVWIWSGKTVASWRRFTSRCCCRPRRGHKSGGAMAAGDYPEASAALTGRTGPPGPAATYHKQVSLSHV [chain 2 E502A]
6 | 5 % of cells | 62 % of cells | chain 2 ASKAPVCQEITVPMCRGIGYNLTHMPNQFNHDTQDEAGLEVHQFWPLVEIQCSPDLRFFLCSMYTPICLPDYHKPLPPCRSVCERAKAGCSPLMRQYGFAWPERMSCDRLPVLGRDAEVLCMDYNRSEATTAPPRPFPAKPTLPGPPGAPASGGECPAGGPFVCKCREPFVPILKESHPLYNKVRTGQVPNCAVPCYQPSFSADERTFATFWIGLWSVLCFISTSTTVATFLIDMERFRYPERPIIFLSACYLCVSLGFLVRLVVGHASVACSREHNHIHYETTGPALCTIVFLLVYFFGMASSIWWVILSLTWFLAAGMKWGNEAIAGYAQYFHLAAWLIPSVKSITALALSSVDGDPVAGICYVGNQNLNSLRGFVLGPLVLYLLVGTLFLLAGFVSLFRIRSVIKQGGTKTDKLEKLMIRIGIFTLLYTVPASIVVACYLYEQHYRESWEAALTCACPGHDTGQPRAKPEYWVLMLKYFMCLVVGITSGVWIWSGATVESWRRFTSRCCCRPRRGHKSGGAMAAGDYPEASAALTGRTGPPGPAATYHKQVSLSHV [chain 2 K499A]
